The values that follow come from patent publication US20240239872A1 (SHANDONG AGRICULTURAL UNIVERSITY, published 2024).

The test addresses T1, CP of tomato brown rugose fruit virus (genus Tobamovirus) (Tomato brown rugose fruit virus, UniProt A0A0S2SZX3 2-159).
T1 construct: also called ToMMV (as printed for this virus)
T1 sequence: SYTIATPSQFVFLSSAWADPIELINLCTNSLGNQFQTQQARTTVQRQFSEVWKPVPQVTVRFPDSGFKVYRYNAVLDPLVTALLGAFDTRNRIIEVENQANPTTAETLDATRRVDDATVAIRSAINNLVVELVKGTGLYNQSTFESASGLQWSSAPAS
Kind of test: dot blot; also Western blot and ELISA. A general note: In western blotting, separated proteins are transferred to a membrane and probed.

B1: monoclonal antibody M1 (antibody, V domains shown)
VH: QVQLQQSGPELVRPGASVKMSCKTSGYPFSTYWMHWVKQRPGQGLEWIGMIKPSNSETSLNQKFKDKATLNVDKSSNTAYMQLNSLTSEDSGVYYCARAGDSWGQGTTLTVSS
VL: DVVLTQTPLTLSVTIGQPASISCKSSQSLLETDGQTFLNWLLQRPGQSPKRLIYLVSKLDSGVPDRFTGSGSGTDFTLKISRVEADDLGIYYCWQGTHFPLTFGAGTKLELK
notes: also called MAb M1
In the case of B1, the binding result is “no binding”.

B2: monoclonal antibody C1 (antibody, V domains shown)
VH: EVQLQQSGAELVRPGALVKLSCKASGFNIKDYYMHWVKQRPEEGLEWIGWIDPENGNTIYDPKFQGKASITADTSSNTVRLQLSSLTSEDTAVYYCARERGAYWGQGTLVTVSA
VL: QIVLTQSPAIMSASPGEKVTMTCSASSSVSYMYWFQQKPGSSPRLLIYDTSNLASGVPVRFSGSGSGTSYSLTISRMEAEDAATFYCQQWSSYPLTFGAGTKLELK
notes: also called MAb C1
For the molecule B2, the binding result was “no binding”.

B3: monoclonal antibody M2 (antibody, V domains shown)
VH: EVQLVESGGGLVQPKGSLKLSCAASDFTFNTHSMNWVRQAPGKVLEWIARIRSQSNNYATYYADSVKDRFTISRDDSQNMFYLQMNNLKTEDTAMYYCAGDYYGPFAYWGQGTLVAVSA
VL: DVLMTQTPLSLPVSLGDQASISCRSGQSLVHSNGNTYLHWYLQKPGQSPKLLIYKVSNRFSGVPDRFSGSGSGTDFTLKISRVEAEDLGVYFCSQSTHVPWTFGGGTKLEIK
notes: also called MAb M2
For B3, the binding result was “no binding”.

B4: monoclonal antibody N1 (antibody, V domains shown)
VH: EVQLVESGGGLVQPGGSLKLSCAASGFTFSSYGMSWVRQSPDKRLEWVATINNNGGSTYYPDSVKGRFTISRDNAKNTLYLQMSSLKSEDTAVYYCARDAAFDCWGQGTTLTVSS
VL: DIVMSQSPSSLAVSAGEKVTMSCKSSQSLLNSRTRKNYLAWYQQKPGQSPKLLIYWASTRESGVPDRFTGSGSGTDFTLTISSVQAEDLAVYYCKQSYNLFTFGSGTKLEIK
notes: also called MAb N1
In the case of B4, the binding result is “no binding”.

B5: monoclonal antibody M3 (antibody, V domains shown)
VH: EVILVESGGGLVKPGGSLRLSCAASGFTFSSHPLSWVRQSPDKRLEWVASISSGGRYTYYPDSVKGRLTISRDNAKNILYLHMNSLRSEDTAMYYCARRGSTATAWFAYWGQGTLVTVSA
VL: DIALTQSPASLAVSLGQRATISCKASQSVDYDGDSYMSWYQQKPGQPPKLLIYGASNLESGIPARFSGSGSGTDFTLNIHPVEEEDAATYYCQQSNEDLPTFGGGTKLEIK
notes: also called MAb M3
Regarding B5, the binding result was “no binding”.
